The record followed here is paper PMC4332252 (The Journal of Cell Biology, 2015).

Series [1] deals with the molecule itself. As to the kind of experiment: SEC-MALS.
Series [2] concerns the target T1, Plk4-EGFP (Drosophila melanogaster, UniProt O97143 1-769).
T1 sequence (looked up): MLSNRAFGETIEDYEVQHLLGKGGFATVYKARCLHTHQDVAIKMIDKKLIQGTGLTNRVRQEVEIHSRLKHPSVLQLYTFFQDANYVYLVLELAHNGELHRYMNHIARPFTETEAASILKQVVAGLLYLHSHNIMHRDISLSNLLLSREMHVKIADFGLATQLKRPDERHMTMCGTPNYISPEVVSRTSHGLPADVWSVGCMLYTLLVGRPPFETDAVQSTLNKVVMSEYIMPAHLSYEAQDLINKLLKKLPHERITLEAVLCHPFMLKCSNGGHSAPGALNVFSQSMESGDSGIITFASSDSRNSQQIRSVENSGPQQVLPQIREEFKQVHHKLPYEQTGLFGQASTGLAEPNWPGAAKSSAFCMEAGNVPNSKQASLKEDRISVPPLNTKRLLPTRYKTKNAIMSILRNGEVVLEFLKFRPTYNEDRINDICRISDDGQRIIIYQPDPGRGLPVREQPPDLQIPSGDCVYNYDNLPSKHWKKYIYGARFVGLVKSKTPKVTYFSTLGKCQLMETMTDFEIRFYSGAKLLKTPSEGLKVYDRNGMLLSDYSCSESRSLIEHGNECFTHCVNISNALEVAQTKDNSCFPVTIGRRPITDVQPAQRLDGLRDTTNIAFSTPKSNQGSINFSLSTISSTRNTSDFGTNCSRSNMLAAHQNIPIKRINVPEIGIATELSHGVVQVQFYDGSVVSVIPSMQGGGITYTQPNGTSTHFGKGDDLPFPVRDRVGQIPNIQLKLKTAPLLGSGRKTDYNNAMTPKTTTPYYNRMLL
As to the kind of experiment: co-IP.

B1: His6-Asl-A (aa 1-357) (domain or fragment, Drosophila melanogaster, UniProt Q9VNE4 1-357, looked up)
chain: MNTPGISLFQGADALNINSTLDRQEEEEALQDQKRREEELGRIMVNAFDDLLDEENTIDSTTNYQSELEQPPVLPNYPSHPHHKPLQDDAQRANEIEMHRLQILLESKNNELQNVNQVANAAHKKLDDLQKHLSIMQAELDRAIREKQNTHELLVETKETCSNKDSDLDKLRSEKKQLEEDNTRLVGQLEAAKTLLTDVQSKYDMVQASKQKWEERNADLRLKQMEEAHRAQSDLLQQQLCQMKDQLDRKQNELDQINSRYNALQSGHETMLVDKAAKINELSQALDEAQMRCNQLSARPDLQAENRRQQQCIVDLKARIAYLEQTVASLHERLNETTTELDLIDSVIQQHQADESP
Regarding B1, the “stoichiometry N” value in series [1] was 2.

B2: Plk4-myc (natural protein, Drosophila melanogaster, UniProt O97143 1-769, looked up)
chain: T1 sequence (looked up)
Consider B2, for which, in series [2], the “fold increase of bound Plk4-myc with Asl coexpressed, against without Asl” value is ~4 fold.

B3: His6-Asl-B (aa 358-625) (domain or fragment, Drosophila melanogaster, UniProt Q9VNE4 358-625, looked up)
chain: TSRLSQMGGSRLVGSTPLNPLDRVGHIKQELYRALGNLKNKREEVRRLEKLLEERNQELRVLRDQENQSLVQLETLNEGKMRLENKVKAMQQELEEQKHRSQQESDVHSQLNSIVAERDALREKRQQIEEDLEQLKQQNESLQRNYDQLSQENRQLRTRETADNLRLELERHKILLRDSQSEVERLKKLYSDIATDKESLGYELRKLRESDTLKELQDQRQNLATVQRNLQLAEMKSEELKKLLETEKLSHERDLQALRQRSEREKRE
Consider B3, for which the “stoichiometry N” value in series [1] amounted to 2.

B4: His6-Asl-C (aa 626-994) (domain or fragment, Drosophila melanogaster, UniProt Q9VNE4 626-994, looked up)
chain: EAVAVAKESSENCSKCIESIAEITKAEIQLLKLQNVNSMQAKELKELEHALEQSKNLQAEMQEKIELSNKQDELISDLKERAKQFEAYIRQQEEHKQQNKCTPSPKSNSVSPSDPSPKELTQNRIRLIEQRVRDEMAKLFAAELKRFTNRLQKSEERSQCLQREYQTVCAELQQRQTEVDLLKQTILAERENIDEILAGREEKQKEMLQKCRQELQAKNQRIAELLREVEEQHASIDSERQSMKAVMAQWEKQRQSVDQVEHHWRQQLESLRSTHEEAMRSAQQRYQSAKRTAHNYKLYAEDKEAHMKREYERIKHEYELSLAKIEATMNQHLERRSREKHRDKENVPSNSSSDPITNSNRKPKGNGHS
On to B4, for which the “stoichiometry N” value in series [1] came to 3.
